# Experimental data taken from patent US20230106247A1 (L AND L BIO CO LTD NINGBO CHINA, published 2023).
# T1: Cyno Sirpα L932 (cynomolgus)
# T1 chain: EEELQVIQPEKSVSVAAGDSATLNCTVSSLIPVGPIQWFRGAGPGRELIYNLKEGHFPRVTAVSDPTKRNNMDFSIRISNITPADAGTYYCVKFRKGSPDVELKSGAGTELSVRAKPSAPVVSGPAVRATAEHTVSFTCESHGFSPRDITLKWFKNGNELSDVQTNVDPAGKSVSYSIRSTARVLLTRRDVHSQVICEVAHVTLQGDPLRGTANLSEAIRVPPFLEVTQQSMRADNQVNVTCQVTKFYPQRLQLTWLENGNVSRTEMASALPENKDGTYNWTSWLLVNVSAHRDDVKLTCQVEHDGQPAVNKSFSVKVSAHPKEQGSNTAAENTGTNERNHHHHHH
# T2: Cyno Sirpα L937 (cynomolgus)
# T2 construct: also called RB3-5; Cyno Sirpα polymorphism 4 (L937)
# T2 chain: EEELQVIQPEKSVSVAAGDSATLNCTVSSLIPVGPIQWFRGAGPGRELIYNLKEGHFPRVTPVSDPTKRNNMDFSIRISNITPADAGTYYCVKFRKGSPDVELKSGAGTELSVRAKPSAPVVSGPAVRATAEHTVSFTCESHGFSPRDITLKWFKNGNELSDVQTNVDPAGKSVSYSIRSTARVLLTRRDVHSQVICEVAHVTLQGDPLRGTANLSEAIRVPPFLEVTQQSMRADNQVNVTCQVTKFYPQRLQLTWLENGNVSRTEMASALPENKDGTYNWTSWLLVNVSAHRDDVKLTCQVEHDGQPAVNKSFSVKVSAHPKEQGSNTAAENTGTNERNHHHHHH
# B1: humanized antibody mab14-h16 (antibody, human IgG4 S228P, kappa, V domains shown)
# VH: QVQLVQSGAEVKKPGASVKVSCKASGYNFNIYWINWVRQAPGQGLEWIGNIYPSSISTNYNEKFKTRATLTVDKSTSTVYMELSSLRSEDTAVYYCARSEGTYYGGRYEGDWFGYWGQGTLVTVSS
# VL: DIQMTQSPSSLSASVGDRVTITCRASQDIRNYLNWYQQKPGKAPKLLIYFTSTLHSGVPSRFSGSGSGTDFTLTISSLQPEDFATYYCQQGNTLPWTFGGGTKVEIKR
# notes: hIgG4, κ
# Experiments:
# [1] = target: T1, Cyno Sirpα L932; experiment: ELISA
# Protocol: (§1) Different antigens (recombinant proteins) such as the human Sirpα-V1-hFc, Sirpα-V1-his, Sirpα-V2-his, Sirpβ-his, Sirpγ-his, monkey Sirpα-his (cynoSirpα-his) or NOD-mSirpα-his described in Example 1 were diluted with a PBS buffer at pH7.4 to concentrations of 1 μg/mL, 2 μg/mL or 5 μg/mL, added into a 96-well ELISA plate (Corning, CLS3590-100EA) at a volume of 50 μL/well, and placed in an incubator at 37° C. for 2 hours. After the liquid was discarded, the wells were added with a blocking solution of 5% skimmed milk (skimmed milk powder available from Bright Dairy) diluted with PBS at 230 μL/well, and incubated in an incubator at 37° C. for 3 hours, or placed overnight at 4° C. (for 16-18 hours) for blocking. The blocking solution was discarded, and the plate was washed with a PBST buffer (pH7.4 PBS containing 0.05% Tween-20) for 5 times, then added with 50 μL/well of the supernatant (containing a detection antibody) or 10 μg/mL of the starting 5-fold gradient dilution of the antibody to be tested, and incubated at 37° C. for 1 hour. […] The plated was washed with PBST for 5 times, then added with 50 μL/well of TMB chromogenic substrate (KPL, Cat #: 52-00-03), incubated at room temperature for 10-15 min, added with 50 μL/well of 1 M H₂SO₄ to stop the reaction, and read by a […] Go microplate reader (ThermoFisher, Cat #: 51119200) for the absorbance value at 450 nm, and then a clone with high binding activity was selected or a EC₅₀ value was calculated according to the OD value.
# [2] = target: T2, Cyno Sirpα L937; experiment: ELISA
# Protocol: as §1
# [3] = target: T3, human Sirpα-V1-his (human, UniProt P78324 31-373); experiment: blocking ELISA, competitor CD47-hFc
# T3 construct: range 31-373; Bought (Sino Biological 11612-H08H) or expressed in-house; also called hSirpα-V1; hSirpα-V1-his
# Protocol: The recombinant proteins such as human Sirpα-V1-hFc/Sirpα-V1-his were diluted to concentrations of 5 μg/mL or 2 μg/mL respectively with a PBS buffer at pH 7.4, and then added into a 96-well ELISA plate (Corning, CLS3590-100EA) at a volume of 50 μL/well, and placed in an incubator at 37° C. for 2 hours. After the liquid was discarded, the wells were added with a blocking solution of 5% skimmed milk (skimmed milk powder available from Bright Dairy) diluted with PBS at 230 μL/well, and incubated in an incubator at 37° C. for 3 hours, or placed overnight at 4° C. (for 16-18 hours) for blocking. […] The plate was washed for 5 times, added with 50 μL/well of streptavidin-HRP (GenScript, M00091) or anti-his-HRP secondary antibody (GenScript, A00612) diluted at 1:1000, incubated at 37° C. for 1 hour, and then washed with PBST for 5 times. Each well was added with 50 μL of TMB (Surmodic, Cat #: TTMB-1000-01) for color development, and added with 50 μL/well of 1 M H₂SO₄ to stop the reaction. The readings on a microplate reader (MultiskanGO Thermo, Model 51119200) were subjected to data analysis by GraphPad prism 5.
# [4] = target: T3, human Sirpα-V1-his; experiment: ELISA
# Protocol: The self-expressed human PD-1, Sirpα and the like antigens of the present disclosure were diluted with a PBS buffer at pH7.4 to a concentration of 2 μg/mL according to different assays, and then added into a 96-well ELISA plate (Corning, CLS3590-100EA) at a volume of 50 μL/well, and placed in an incubator at 37° C. for 2 hours. After the liquid was discarded, the wells were added with a blocking solution of 5% skimmed milk (Sangon Biotech (Shanghai) Co., Ltd., A600669-0250) diluted with PBS at 200 μL/well, and incubated in an incubator at 37° C. for 3 hours, or placed overnight at 4° C. (for 16-18 hours) for blocking. The blocking solution was discarded, and the plate was washed with a PBST buffer (pH7.4 PBS containing 0.05% tween-20) for 5 times, then added with 50 μL/well of 5-fold serial dilution of the antibody to be tested in 1% BSA, and incubated at 37° C. for 1 hour. […] The plated was washed with PBST for 5 times, then added with 50 μL/well of TMB chromogenic substrate (KPL, 52-00-03), incubated at room temperature for 5-10 min, added with 50 μL/well of 1 M H₂SO₄ to stop the reaction, and read by a […] Go microplate reader (ThermoFisher, 51119200) for the absorbance value at 450 nm, and then EC₅₀ was calculated according to the OD value.
# The aforementioned bispecific antibodies were cloned, expressed and purified according to the cloning, expression and purification methods of Example 1 of the present disclosure.
# [5] = target: human Sirpα-V2-his (human); experiment: ELISA EC50 against Ref2
# Protocol: as §1, with “blocking.” for “blocking. The blocking solution was discarded, and the plate was washed with a PBST buffer (pH7.4 PBS containing 0.05% Tween-20) for 5 times, then added with 50 μL/well of the supernatant (containing a detection antibody) or 10 μg/mL of the starting 5-fold gradient dilution of the antibody to be tested, and incubated at 37° C. for 1 hour.”
# [6] = target: T3, human Sirpα-V1-his; experiment: ELISA EC50 against Ref2
# Protocol: as §1, with “blocking.” for “blocking. The blocking solution was discarded, and the plate was washed with a PBST buffer (pH7.4 PBS containing 0.05% Tween-20) for 5 times, then added with 50 μL/well of the supernatant (containing a detection antibody) or 10 μg/mL of the starting 5-fold gradient dilution of the antibody to be tested, and incubated at 37° C. for 1 hour.”
# Sequence of human Sirpα-V2-his (human) (chain, as listed by the source): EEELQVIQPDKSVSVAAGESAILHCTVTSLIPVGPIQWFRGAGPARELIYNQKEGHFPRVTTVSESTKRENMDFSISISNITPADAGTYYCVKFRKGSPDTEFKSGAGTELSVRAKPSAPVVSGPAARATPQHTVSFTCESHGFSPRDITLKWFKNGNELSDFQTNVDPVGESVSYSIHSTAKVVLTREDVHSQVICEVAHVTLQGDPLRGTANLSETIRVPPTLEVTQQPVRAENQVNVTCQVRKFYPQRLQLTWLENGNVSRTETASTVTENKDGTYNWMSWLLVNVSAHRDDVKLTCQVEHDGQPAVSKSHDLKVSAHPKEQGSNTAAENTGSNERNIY
binder,measurement,setting,value
B1,EC50,[1],0.181 nM
same,EC50,[2],0.121 nM
same,IC50,[3],10.1 nM
same,EC50,[4],0.077 nM
same,fold stronger binding than Ref2,[5],2.9 fold
same,fold stronger binding than Ref2,[6],1.4 fold
